According to the supplement of paper PMC7125110:
± gives the standard error. Fewer inactive variants are shown than the library holds.

B1: glmS ribozyme (parent)
chain: AUAAAAGCGCCAGAACUACAGAAAUGUAGUUGACGAGGAGGAGGUUUAUCGAAUUUUCGGCGGAUGCCUCCAAA

Experiments:
Conditions in all cases: with glucosamine-6-phosphate
glucosamine-6-phosphate [1] = variants of: B1; assay: self-cleavage kobs at 40 uM GlcN6P; higher = faster cleavage; RNA array
Procedure, shortened: (§1)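 Weighted Michaelis–Menten fits across concentrations supplied kcat and KM, based on kobs from one- or two-exponential decay fits to normalised per-tile medians. The data came from barcoded ribozyme variants transcribed in situ by E. coli RNA polymerase on sequenced MiSeq chips and tracked at 37 °C by a hybridised Cy3 probe. Glucosamine-6-phosphate (40 μM to 10 mM) in HEPES/KCl/Mg(OAc)2 buffer was flowed in.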

glucosamine-6-phosphate [2] = variants of: B1; assay: self-cleavage kobs at 10000 uM GlcN6P; higher = faster cleavage; RNA array
Procedure, shortened: as §1

glucosamine-6-phosphate [3] = variants of: B1; assay: self-cleavage kobs at 160 uM GlcN6P; higher = faster cleavage; RNA array
Procedure, shortened: as §1

glucosamine-6-phosphate [4] = variants of: B1; assay: self-cleavage kobs at 640 uM GlcN6P; higher = faster cleavage; RNA array
Procedure, shortened: as §1

glucosamine-6-phosphate [5] = variants of: B1; assay: self-cleavage kobs at 2500 uM GlcN6P; higher = faster cleavage; RNA array
Procedure, shortened: as §1

Variant	self-cleavage kobs at 40 uM GlcN6P (glucosamine-6-phosphate [1]) [s⁻¹]	self-cleavage kobs at 10000 uM GlcN6P (glucosamine-6-phosphate [2]) [s⁻¹]	self-cleavage kobs at 160 uM GlcN6P (glucosamine-6-phosphate [3]) [s⁻¹]	self-cleavage kobs at 640 uM GlcN6P (glucosamine-6-phosphate [4]) [s⁻¹]	self-cleavage kobs at 2500 uM GlcN6P (glucosamine-6-phosphate [5]) [s⁻¹]
C10G G44U C68U C70U	< 1e-05	< 1e-05			
G9A G37A	< 1e-05	< 1e-05	< 1e-05	< 1e-05	< 1e-05
G9A C10A C11U U56G C71U	< 1e-05	< 1e-05			< 1e-05
C10U C16U U47C U65C	< 1e-05				
G9U G29C U30C	< 1e-05	< 1e-05	< 1e-05	< 1e-05	< 1e-05
G9A A15U G63U	< 1e-05				
G9A A42G G43U C61A	< 1e-05			< 1e-05	
C10U G41A	< 1e-05	< 1e-05	< 1e-05	< 1e-05	< 1e-05
C10G G32A	< 1e-05	< 1e-05			
G9U G51C	< 1e-05	< 1e-05	< 1e-05		
G9U G51U	< 1e-05	< 1e-05	< 1e-05	< 1e-05	
C10U U31G G40U	< 1e-05				
G9A A14C G41U U55C	< 1e-05				
C10U C34G C58U	< 1e-05				
C10G A52U G59C	< 1e-05		< 1e-05	< 1e-05	< 1e-05
C10U G37U G43U A52G G60U	< 1e-05	< 1e-05			< 1e-05
G9A G63A	< 1e-05	< 1e-05		< 1e-05	< 1e-05
G9C U57C C71A	< 1e-05	< 1e-05			
G9A G13A C34G U49C C68U	< 1e-05				
C11A A48G	< 1e-05		< 1e-05	< 1e-05	< 1e-05
C10A G13U G37U G60A U65A	< 1e-05	< 1e-05		< 1e-05	
C10A A14C A42C G63A	< 1e-05	< 1e-05	< 1e-05		
C11A A42G U56A	< 1e-05	7.2e-05 ± 1.5e-05			2.82e-05 ± 1.3e-05
C10G G35U A39U	< 1e-05				
C10A G40U U54C	< 1e-05	< 1e-05			

Variant	self-cleavage kobs at 40 uM GlcN6P (glucosamine-6-phosphate [1]) [s⁻¹]	self-cleavage kobs at 10000 uM GlcN6P (glucosamine-6-phosphate [2]) [s⁻¹]	self-cleavage kobs at 160 uM GlcN6P (glucosamine-6-phosphate [3]) [s⁻¹]	self-cleavage kobs at 640 uM GlcN6P (glucosamine-6-phosphate [4]) [s⁻¹]	self-cleavage kobs at 2500 uM GlcN6P (glucosamine-6-phosphate [5]) [s⁻¹]
G9U C70U	< 1e-05	< 1e-05	< 1e-05	< 1e-05	
C10G A48U	< 1e-05	< 1e-05	< 1e-05	< 1e-05	< 1e-05
C10U G35C A52U	< 1e-05				
C10U A52U	< 1e-05	< 1e-05	< 1e-05	< 1e-05	< 1e-05
G9C G29C C67U	< 1e-05	< 1e-05		< 1e-05	
C10G G38U U65G	< 1e-05	< 1e-05			
C10G G63C	< 1e-05		< 1e-05	< 1e-05	< 1e-05
C11A A12G U65A C67G	0.000126 ± 3e-05	5.83e-05 ± 1.5e-05	0.000766 ± 0.00026	0.000193 ± 6.4e-05	0.000105 ± 2.9e-05
C10A C61A C67G	4.33e-05 ± 1.9e-05				
C10U G29C G35A G44U C50A U55C A64U	< 1e-05	< 1e-05			
G9A G13A A14C C61A	< 1e-05	< 1e-05			
C11A A14G G29A G35A A53G	< 1e-05				
C10G C34A A48C U49C	< 1e-05				
G9A C58G U65C	< 1e-05			< 1e-05	< 1e-05
C10G A52G	< 1e-05	< 1e-05			< 1e-05
G9U G38A U56C G63U	< 1e-05	< 1e-05			
C10U G40U U49C C70A	< 1e-05	< 1e-05			
G9C G43A G44U C70G	< 1e-05	< 1e-05			
G9U C50U C70U	< 1e-05				
G9U C11A G59A A64U	< 1e-05				
C10G G37C U47A U57A G66C C70G	< 1e-05	< 1e-05			
G9U C67G	< 1e-05		< 1e-05		< 1e-05
C10G A42C U47A G59U	< 1e-05				
C10A G40U G41A C70A	< 1e-05	< 1e-05			
G9U C34A G35C G43U	< 1e-05				< 1e-05
